This data set addresses T1, Rad54 (Saccharomyces cerevisiae, UniProt P32863 1-898).
T1 sequence: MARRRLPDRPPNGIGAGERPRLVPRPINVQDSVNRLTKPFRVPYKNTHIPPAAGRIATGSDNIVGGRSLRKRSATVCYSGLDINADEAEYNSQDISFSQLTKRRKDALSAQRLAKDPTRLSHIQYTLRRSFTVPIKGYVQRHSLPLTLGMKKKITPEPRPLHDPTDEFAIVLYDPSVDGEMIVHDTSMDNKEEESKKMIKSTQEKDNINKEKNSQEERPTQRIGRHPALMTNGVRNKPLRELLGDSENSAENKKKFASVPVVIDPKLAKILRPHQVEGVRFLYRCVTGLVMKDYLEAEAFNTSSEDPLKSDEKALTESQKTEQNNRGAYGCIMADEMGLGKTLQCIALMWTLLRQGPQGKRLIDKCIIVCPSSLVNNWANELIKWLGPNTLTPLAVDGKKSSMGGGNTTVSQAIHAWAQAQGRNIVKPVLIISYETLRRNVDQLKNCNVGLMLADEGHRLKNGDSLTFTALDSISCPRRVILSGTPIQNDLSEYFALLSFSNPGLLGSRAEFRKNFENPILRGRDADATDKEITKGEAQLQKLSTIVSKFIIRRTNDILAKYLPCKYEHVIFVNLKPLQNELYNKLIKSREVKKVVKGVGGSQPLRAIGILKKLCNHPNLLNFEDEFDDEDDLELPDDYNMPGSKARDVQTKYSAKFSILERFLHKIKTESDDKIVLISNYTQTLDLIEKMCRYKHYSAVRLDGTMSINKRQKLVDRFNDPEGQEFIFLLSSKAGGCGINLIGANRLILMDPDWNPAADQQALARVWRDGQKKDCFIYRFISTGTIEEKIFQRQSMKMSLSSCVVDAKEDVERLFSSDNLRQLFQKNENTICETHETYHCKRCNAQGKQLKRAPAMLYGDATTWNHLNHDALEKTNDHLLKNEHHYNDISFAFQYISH
The data set is described as follows: EMSA; apparent Kd; Hill fit; 3 mM Mg2+; EMSA: 35 mM Tris-Cl pH 7.5, 3 mM MgCl2, 50 mM KCl, 1 mM DTT, 10% glycerol, 10 nM DNA, 30 C, 5 min, 8% native PAGE in 0.5x TBE; DNA curtains: HR buffer (composition not given), 10 nM GFP-Rad54, flow 0.2 mL/min. The note with it: protein: recombinant; tags: GFP-GST (N-term); label: Atto647N 5' on strand 1; blunt. For orientation: In EMSA bound probe runs differently from free probe, usually more slowly.

B1: 90 bp dsDNA (90-mer) (dsDNA)
DNA 1: GATGTTCTGCTGGATATGCACTTTTCCGGGCTGACGTACACCGTGCTCAGCCTGTTTTTCAGCGATCCGGATATGCATCCGCTGGATTTC
DNA 2: GAAATCCAGCGGATGCATATCCGGATCGCTGAAAAACAGGCTGAGCACGGTGTACGTCAGCCCGGAAAAGTGCATATCCAGCAGAACATC
With B1, the Kd stood at 21 nM.

These data come from PMC13138755, “Potential Rad54 separation of function mutation highlights unique roles during homologous recombination”.
